Assay results: patent publication US20160046944, “APTAMER TO IL-17 AND USE THEREOF” (THE UNIVERSITY OF TOKYO, published 2016)

T1: IL-17 (Homo sapiens, UniProt Q16552 Q16552:24-155)
T1 sequence: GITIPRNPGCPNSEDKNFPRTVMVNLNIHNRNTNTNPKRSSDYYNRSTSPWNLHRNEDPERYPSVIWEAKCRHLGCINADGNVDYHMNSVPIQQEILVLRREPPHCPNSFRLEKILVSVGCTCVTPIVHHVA

T2: IL-17 (IL-17A) (Homo sapiens, UniProt Q16552 Q16552:24-155)
T2 sequence: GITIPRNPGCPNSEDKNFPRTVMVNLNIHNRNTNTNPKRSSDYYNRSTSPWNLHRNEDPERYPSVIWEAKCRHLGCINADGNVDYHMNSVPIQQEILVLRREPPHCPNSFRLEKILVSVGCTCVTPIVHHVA

B1: aptamer No. 18 (mixed)
mixed: GGGGUAGCCGGAGGAGTCAGTAAUCGGUACCCC
modifications: 2'-OMe (M), 2'-F (F), PS (S) as marked; uppercase DNA; (NI) printed, likely (M) [2'-OMe: 1-5,8,9,11,14,15,24-27,29 (26 printed NI, likely M); 2'-F: 12,18,19,28; PS: 7]
B2: aptamer No. 19 (mixed)
mixed: GGGUAGCCGGAGGAGTCAGTAAUCGGUACCC
modifications: 2'-OMe (M), 2'-F (F), PS (S) as marked; uppercase DNA [2'-OMe: 1-4,7,8,10,13,14,21-26,28; 2'-F: 17,18,27; PS: 6]
B3: aptamer No. 20 (mixed)
mixed: GGGUAGCCGGAGGAGTCAGTAAUCGGUACCC
modifications: 2'-OMe (M), 2'-F (F), PS (S) as marked; uppercase DNA [2'-OMe: 1-4,7,8,10,13,14,21,23-26,28; 2'-F: 17,18,27; PS: 6]
B4: aptamer No. 23 (mixed)
mixed: GGGUAGCCGGAGGAGTCAGTAAUCGGTACCC
modifications: 2'-OMe (M), 2'-F (F), PS (S) as marked; uppercase DNA [2'-OMe: 1-4,7,8,10,13,14,23-26,29-31; 2'-F: 17; PS: 6]
B5: aptamer No. 24 (mixed)
mixed: GGGUAGCCGGAGGAGTCAGTAAUCGGTACCC
modifications: 2'-OMe (M), 2'-F (F) as marked; uppercase DNA [2'-OMe: 1-4,7,8,10,13,14,23-26,29-31; 2'-F: 17]
B6: aptamer No. 25 (mixed)
mixed: GGGUAGCCGGAGGAGTCAGTAAUCGGTACCC
modifications: 2'-OMe (M), 2'-F (F) as marked; uppercase DNA [2'-OMe: 1-4,7,8,10,13,14,21,23-26,29-31; 2'-F: 17]
B7: aptamer No. 2 (mixed)
RNA: GGGUAGCCGGAGGAGUCAGUAAUCGGUACCC
modifications: 2'-OMe (M), 2'-F (F), PS (S) as marked; uppercase DNA [2'-OMe at 1-3,10; 2'-F at 4,7,8,16,17,20,23,24,27; PS at 6; DNA at 9,29-31]
B8: aptamer No. 3 (mixed)
RNA: GGGUAGCCGGAGGAGUCAGUAAUCGGUACCC
modifications: 2'-OMe (M), 2'-F (F) as marked; uppercase DNA [1,2,3,4,5,7,8,10,11,13,14,16,17,18,20,21,22,23,24,25,26,27]
B9: aptamer No. 4 (mixed)
RNA: GGGUAGCCGGAGGAGUCAGUAAUCGGUACCC
modifications: 2'-OMe (M), 2'-F (F), PS (S) as marked; uppercase DNA [1,2,3,4,6,7,8,10,11,13,14,16,17,18,20,21,22,23,24,25,26,27,28]
B10: aptamer No. 5 (mixed)
mixed: GGGGUAGCCGGAGGAGTCAGTAAUCGGUACCCC
modifications: 2'-OMe (M), 2'-F (F), PS (S) as marked; uppercase DNA; SEQ ID NO:2 [1,2,3,4,5,6,7,8,9,11,12,14,15,18,19,22,23,24,25,26,27,28]
B11: aptamer No. 55 (mixed)
mixed: GGGUAGCCGGAGGAGTCAGTGAUCGGUACCC
modifications: 2'-OMe (M), 2'-F (F), PS (S) as marked; uppercase DNA [2'-OMe: 1,2,3,4,7,8,10,13,14,23,24,25,26,28; 2'-F: 11,17,18,27; PS: 6]
B12: aptamer No. 57 (mixed)
mixed: GGGUAGCCGGAGGAGTCAGTAAUCGGUACCC
modifications: 2'-OMe (M), 2'-F (F), PS (S) as marked; uppercase DNA [2'-OMe: 1,2,3,4,7,8,10,13,14,19,21,22,23,24,25,26,28; 2'-F: 11,17,18,27; PS: 6,15]
B13: aptamer No. 61 (mixed)
mixed: GGGUAGCCGGAGGAGTCAGTAAUCGGUACCC
modifications: 2'-OMe (M), 2'-F (F), PS (S) as marked; uppercase DNA [2'-OMe: 1,2,3,4,7,8,10,11,13,14,19,21,22,23,24,25,26,28; 2'-F: 17,18,27; PS: 6,15]
B14: aptamer No. 67 (mixed)
mixed: GGGUAGCCGGAGGAGTCAGTAAUCGGUACCC
modifications: 2'-OMe (M), 2'-F (F), PS (S) as marked; uppercase DNA [2'-OMe: 1-5,7,8,10,13,14,17,21-31; 2'-F: 11,18; PS: 6,15,19]
B15: aptamer No. 71 (mixed)
RNA: GGGUAGCCGGAGGAGUCAGUAAUCGGUACCC
modifications: 2'-OMe (M), 2'-F (F), PS (S) as marked; uppercase DNA [2'-OMe: 1-5,7,8,10,13,14,17,21-26,28-31; 2'-F: 11,16,18,20,27; PS: 6,15,19]
B16: aptamer No. 74 (mixed)
mixed: GGGUAGCCGGAGGAGTCAGTAAUCGGUACCC
modifications: 2'-OMe (M), 2'-F (F) as marked; uppercase DNA [2'-OMe: 1-5,7,8,10,13,14,21-26,28-31; 2'-F: 11,17,18,27]
B17: aptamer No. 88 (mixed)
RNA: GGGUAGCCGGAGGAGUCAGUGAUCGGUACCC
modifications: 2'-OMe (M), 2'-F (F), PS (S) as marked; uppercase DNA [2'-OMe: 1-5,7,8,10,11,13,14,17,22-26,28-31; 2'-F: 16,18,20,27; PS: 6,15,19; DNA: 9]
B18: aptamer No. 50 (ssRNA)
RNA: GGUCUAGCCGGAGGAGUCAGUAAUCGGUAGACC
modifications: 2'-F all U and C except none: ggu(F)c(F)u(F)agc(F)c(F)ggaggagu(F)c(F)agu(F)aau(F)c(F)ggu(F)agac(F)c(F)
B19: aptamer No. 26 (mixed)
mixed: GGGUAGCCGGAGGAGTCAGTAAUCGGTACCC
modifications: (M)=2'-OMe,(F)=2'-F,(S)=PS, lowercase RNA, uppercase DNA: g(M)g(M)g(M)u(M)Ag(S)c(M)c(M)Gg(M)Agg(M)a(M)gTc(F)agTaau(M)c(M)g(M)g(M)Ta(M)c(M)c(M)c(M)
B20: aptamer No. 27 (mixed)
mixed: GGGUAGCCGGAGGAGTCAGTAAUCGGTACCC
modifications: g(M)g(M)g(M)u(M)Ag(S)c(M)c(M)Gg(M)Agg(M)a(M)gTc(F)agTa(M)Au(M)c(M)g(M)g(M)Ta(M)c(M)c(M)c(M)

Assays:
Conditions in all cases: chain copies: 2
[1] = biological target: T1, IL-17; experiment: cell_activity; NIH3T3 IL-6 release
Experimental: (§1) First, human IL-17 and the aptamer produced in Example 1-1 were pre-incubated at 37° C. for 30 min, and added to NIH3T3 cell (ATCC, CRL1658) together with mouse TNFα (2 ng/mL). Then, after incubation for 24 hr, the culture supernatant was collected, and the amount of IL-6 was measured by BD Cytometric Bead Array (BD Biosciences). The IL-17 inhibitory action of each aptamer was determined from the amount of IL-6. For comparison with the aptamer of the present invention, a conventionally-known aptamer (aptamer No. 50) against IL-17 was used.

[2] = biological target: T1, IL-17; experiment: SPR; IL-17R-Fc on chip
Experimental: Whether aptamers shown by aptamer Nos. 1-49 inhibit the binding of IL-17 and IL-17 receptor was evaluated by the surface plasmon resonance method.
For the measurement, BIAcore2000 manufactured by BIAcore was used. […] As an analyte, IL-17 (100 or 150 nM) and an aptamer (50 or 100 nM) shown by aptamer No. 1-49 were mixed, maintained for 15 min and after that the mixture was flown.

[3] = biological target: T1, IL-17; experiment: SPR; IL-17 150 nM, aptamer 12.5 or 50 nM
Experimental: Whether the synthesized aptamers inhibit the binding of IL-17 and IL-17 receptor was evaluated by the surface plasmon resonance method.
For the measurement, BIAcore T100 manufactured by GE Healthcare Bio Sciences was used. […] As an analyte, IL-17 (150 nM) and each aptamer (12.5 or 50 nM) shown by Table 3 were mixed, maintained for 15 min and after that the mixture was flown.

[4] = biological target: T1, IL-17; experiment: cell_activity; NIH3T3 IL-6 release; remark: listed apart in the source
Experimental: (§2) First, human IL-17 and the aptamer produced in Example 1-2 were pre-incubated at 37° C. for 30 min, and added to NIH3T3 cell (ATCC, CRL1658) together with mouse TNFα (2 ng/mL). Then, after incubation for 24 hr, the culture supernatant was collected, and the production amount of IL-6 was measured by ELISA method described below. The IL-17 inhibitory action of each aptamer was determined from the production amount of IL-6. For comparison with the aptamer of the present invention, a conventionally-known aptamer (aptamer No. 50) against IL-17 was used.
ELISA method for verifying IL-17 inhibitory action of aptamer: A microtiter plate for ELISA was coated with rat anti-mouse IL-6 antibody (BD Biosciences, 2 μg/mL; 100 μL/well) diluted with PBS, and incubated at 4° C. overnight. The next day, the microtiter plate was washed 3 times with PBS/0.05% Tween 20, and applied blocking with PBS/1% BSA (200 μL/well) at room temperature for 2 hr. Then, the plate was washed 3 times with PBS/0.05% Tween 20. Recombinant mouse IL-6 (BD Biosciences; 100 μL/well) serially diluted with PBS/1% BSA/0.05% Tween 20 or culture supernatants (100 μL/well) were added to the plate. After incubation at room temperature for 2 hr, the plate was washed 3 times with PBS/0.05% Tween 20. Then, 100 μL/well of biotin conjugated rat anti-mouse IL-6 antibody (BD Biosciences) was added to the plate at final dilution of 1/500, and the mixture was reacted at room temperature for 1 hr. After washing 3 times with PBS/0.05% Tween 20, 100 μL/well of alkaline phosphatase conjugated streptavidin was added at final dilution of 1/1000. After 30 min at room temperature, the plate was again washed 4 times with PBS/0.05% Tween 20, and a substrate (1-Step PNPP; Thermo Fisher Scientific Inc; 100 μL/well) was added. After 15 min, aqueous sodium hydroxide solution (2N: 50 μL/well) was added to stop the reaction, and the plate was read on a microtiter reader (Bio-Rad) by using a 405 nm filter.

[5] = biological target: T1, IL-17; experiment: cell_activity; NIH3T3 IL-6 release, human IL-17 + mouse TNFa, 37 C; 8.63 nM in Table 6
Experimental: as §2
ELISA method for verifying IL-17 inhibitory action of aptamer: A microtiter plate for ELISA was coated with rat anti-mouse IL-6 antibody (BD Biosciences, 2 μg/mL; 100 μL/well) diluted with PBS, and incubated at 4° C. overnight. The next day, the microtiter plate was washed 3 times with PBS/0.05% Tween 20, and applied blocking with PBS/1% BSA (200 μL/well) at room temperature for 2 hr. Then, the plate was washed 3 times with PBS/0.05% Tween 20. Recombinant mouse IL-6 (BD Biosciences; 100 μL/well) serially diluted with PBS/1% BSA/0.05% Tween 20 or culture supernatants (100 μL/well) were added to the plate. […] After 15 min, aqueous sodium hydroxide solution (2N: 50 μL/well) was added to stop the reaction, and the plate was read on a microtiter reader (Bio-Rad) by using a 405 nm filter.

[6] = biological target: T2, IL-17 (IL-17A); experiment: cell_activity; IL-6 release, NIH3T3, 37 C
Experimental: as §1

[7] = biological target: T2, IL-17 (IL-17A); experiment: cell_activity; IL-6 release, NIH3T3
Experimental: as §1

Binder	IC50 [1]	binding signal [2]	IC50 [4]	also measured
B1	0.15 nM	13.6 % IL-17/IL-17R binding remaining	–	–
B2	2.78 nM	8.46 % IL-17/IL-17R binding remaining	–	–
B3	0.37 nM	18.5 % IL-17/IL-17R binding remaining	–	–
B4	1.34 nM	13.4 % IL-17/IL-17R binding remaining	–	–
B5	1.77 nM	15.2 % IL-17/IL-17R binding remaining	–	–
B6	1.64 nM	11.7 % IL-17/IL-17R binding remaining	–	–
B7	0.68 nM	32 % IL-17/IL-17R binding remaining	–	–
B8	2.08 nM	25.3 % IL-17/IL-17R binding remaining	–	–
B9	2.78 nM	26.8 % IL-17/IL-17R binding remaining	–	–
B10	0.13 nM	32.3 % IL-17/IL-17R binding remaining	–	–
B11	–	–	0.11 nM	binding signal [3]: 19 % IL-17/IL-17R binding remaining
B12	–	–	2.36 nM	–
B13	–	–	3.41 nM	–
B14	–	–	5.95 nM	–
B15	–	–	5.54 nM	–
B16	–	–	1.06 nM	–
B17	–	–	2.88 nM	–
B18	–	–	–	IC50 [5]: 7.36 nM
B19	–	–	–	IC50 [6]: 0.78 nM
B20	–	–	–	IC50 [7]: 2.45 nM
